From US20190030120A1 (ACADEMIA SINICA, published 2019) come the findings set out here.

Test [1] has as its target T1, endogenous TIFA (U937 cells) (Homo sapiens, UniProt Q96CG3 1-184).
T1 construct: Endogenous protein of U937 cells
T1 sequence: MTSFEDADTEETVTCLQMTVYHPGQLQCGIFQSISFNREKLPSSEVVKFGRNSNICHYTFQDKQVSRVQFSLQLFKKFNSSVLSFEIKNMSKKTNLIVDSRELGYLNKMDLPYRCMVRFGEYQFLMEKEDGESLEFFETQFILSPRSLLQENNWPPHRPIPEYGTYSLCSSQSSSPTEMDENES
As to the kind of experiment: anti-Myc immunoprecipitation from lysates of transduced U937 cells, western blot. A general note: A western blot detects proteins with antibodies after separation by electrophoresis.
Source text: AML lines were respectively infected with pseudotyped retroviruses carrying these constructs to generate stable cells. […] (FIG. 5C) Lysates from U937 cells stably expressing TIFA fragments shown in (FIG. 5B) were immunoprecipitated using anti-Myc immunobeads and analyzed by western blot.
We designed to fine-map the minimal effective region for molecular targeting of TIFA in AML cells through retroviral transduction (FIG. 5B).

In a further test the target is T2, Aurora A (UniProt O14965 1-403).
T2 construct: In the kinase assay it was present in 293T cell extracts, not purified; also called Aurora A kinase
T2 sequence (looked up): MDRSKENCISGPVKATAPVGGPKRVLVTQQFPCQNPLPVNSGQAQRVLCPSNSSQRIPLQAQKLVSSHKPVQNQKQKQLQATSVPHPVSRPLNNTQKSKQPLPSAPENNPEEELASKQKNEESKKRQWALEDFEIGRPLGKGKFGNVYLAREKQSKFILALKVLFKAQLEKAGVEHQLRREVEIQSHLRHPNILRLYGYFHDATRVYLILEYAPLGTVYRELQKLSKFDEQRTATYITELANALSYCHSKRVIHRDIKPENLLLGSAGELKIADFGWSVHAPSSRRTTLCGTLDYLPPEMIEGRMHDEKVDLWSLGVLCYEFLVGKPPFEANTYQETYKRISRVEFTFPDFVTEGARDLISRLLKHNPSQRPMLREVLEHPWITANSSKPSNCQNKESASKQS
The test can be described thus: immunoprecipitation of Aurora A from lysates of 293T cells transfected with HA-tagged TIFA, western blot.

Procedure for Aurora A: After 48 h, cells were treated with or without 10 ng/mL TNF-α (R&D Systems) for 30 min, washed by PBS, and lysed with CHAPS lysis buffer (20 mM PIPES, 1 mM Na₃VO₄, 1 mM EGTA, 50 mM Tris-HCl, 150 mM NaCl, 50 mM NaF, 1% CHAPS, and 10% glycerol) supplemented with protease inhibitor cocktail (Roche), phosphatase inhibitor cocktail 3 (Sigma). Three vig of indicated antibody was pre-coated with 100 μL M-280 Dynabeads (lnvitrogen) overnight at 4° C. The 500 μg cell extracts were incubated with 15 μL antibody-coated Dynabeads at 4° C. overnight. The protein-bead complex was then washed with Tris-buffered saline Tween 20 (TBST) buffer and subjected to Western blot analysis.

B1: TIFA fragment F1F2 with two consecutive Myc-tags (peptide)
chain: MTSFEDADTEETVTCLQMTVYHPGQLQCGIFQSISFNREKLPSSEVVKFGRNSNICHYTFQDKQVSRVQFSLQLFKKFNSSVLSFEIKNMSKKTNLIVDSREL
notes: Stably expressed in U937 cells by retroviral transduction (pLNCX); also called F1-F2 peptide fragment; DN fragment; not shown: two consecutive Myc-tags (2Myc)
Regarding B1, the binding result in test [1] was “binds”.

B2: TIFA fragment F2F3 with two consecutive Myc-tags (peptide)
chain: VVKFGRNSNICHYTFQDKQVSRVQFSLQLFKKFNSSVLSFEIKNMSKKTNLIVDSRELGYLNKMDLPYRCMVRFGEYQFLMEKEDGESLEFFETQFILSPRSLLQENNWPPHRPIPEYGTYSLCSSQSSSPTEMDENES
notes: Stably expressed in U937 cells by retroviral transduction (pLNCX); also called F2-F3 peptide fragment; DN fragment; not shown: two consecutive Myc-tags (2Myc)
Take B2: the binding result in test [1] is recorded as “binds”.

B3: HA-tagged TIFA (full-length TIFA wild-type) (other)
chain: T1 sequence
notes: Expressed in 293T cells from pCDNA3.1. 'full-length TIFA wild-type following a synthesized HA-tag' is read here as an N-terminal tag; also called HA-TIFA; not shown: synthesized HA-tag
In the case of B3, in the test with Aurora A, the binding result is listed as “binds”.
